This is an account of results in patent publication US20140220107A1.

Test [1] deals with HIV-1 Ba-L gp145 (HIV-1 Ba-L (subtype B)). Kind of test: gp160 antigen capture ELISA, 2F5 as capture antibody; media of transfected HEK293 cells, 48 h (negative control 0.135). (In an ELISA, binding on a coated surface is turned into a signal by an enzyme label.)
For test [2], the target named is HIV-1 subtype C C06838v1c48 gp160 (HIV-1 subtype C isolate C06838v1c48). Described as above.
The target in test [3] is HIV-1 subtype C C06838v1c48 gp160 DC (HIV-1 subtype C isolate C06838v1c48). The description is as above.
Test [4] has as its target HIV-1 subtype C C06980v0c22 gp160 (HIV-1 subtype C isolate C06980v0c22). Described as above.
Test [5] addresses HIV-1 subtype C C06980v0c22 gp160 DC (HIV-1 subtype C isolate C06980v0c22). Described as above.
For test [6], the target named is HIV-1 subtype C C06980v1c3 gp160 (HIV-1 subtype C isolate C06980v1c3). The test is described as above.
Test [7] deals with HIV-1 subtype C C06980v1c3 gp160 DC (HIV-1 subtype C isolate C06980v1c3). The description is as above.
In test [8] the target is HIV-1 subtype C C3728v2c6 gp160 (HIV-1 subtype C isolate C3728v2c6). Described as above.
Test [9] addresses HIV-1 subtype C C3728v2c6 gp160 DC (HIV-1 subtype C isolate C3728v2c6). Described as above.
The target in test [10] is HIV-1 Ba-L gp145 (HIV-1 Ba-L (subtype B)). In words: gp160 antigen capture ELISA, 2F5 as capture antibody; cell lysate of transfected HEK293 cells, 48 h (negative control 0.150).
Test [11] concerns the target HIV-1 subtype C C06838v1c48 gp160 (HIV-1 subtype C isolate C06838v1c48). The description is as above.
For test [12], the target named is HIV-1 subtype C C06838v1c48 gp160 DC (HIV-1 subtype C isolate C06838v1c48). Described as above.
For test [13], the target named is HIV-1 subtype C C06980v0c22 gp160 (HIV-1 subtype C isolate C06980v0c22). The test is described as above.
Test [14] deals with HIV-1 subtype C C06980v0c22 gp160 DC (HIV-1 subtype C isolate C06980v0c22). Described as above.
Test [15] concerns the target HIV-1 subtype C C06980v1c3 gp160 (HIV-1 subtype C isolate C06980v1c3). The description is as above.
Test [16] deals with HIV-1 subtype C C06980v1c3 gp160 DC (HIV-1 subtype C isolate C06980v1c3). The description is as above.
In test [17] the target is HIV-1 subtype C C3728v2c6 gp160 (HIV-1 subtype C isolate C3728v2c6). Described as above.
Test [18] addresses HIV-1 subtype C C3728v2c6 gp160 DC (HIV-1 subtype C isolate C3728v2c6). Described as above.
Test [19] addresses HIV-1 Ba-L gp145 (HIV-1 Ba-L (subtype B)). Kind of test: gp160 antigen capture ELISA, 4E10 as capture antibody; media of transfected HEK293 cells, 48 h (negative control 0.123).
Test [20] addresses HIV-1 subtype C C06838v1c48 gp160 (HIV-1 subtype C isolate C06838v1c48). The test is described as above.
Test [21] has as its target HIV-1 subtype C C06838v1c48 gp160 DC (HIV-1 subtype C isolate C06838v1c48). The description is as above.
Test [22] concerns the target HIV-1 subtype C C06980v0c22 gp160 (HIV-1 subtype C isolate C06980v0c22). Described as above.
Test [23] addresses HIV-1 subtype C C06980v0c22 gp160 DC (HIV-1 subtype C isolate C06980v0c22). The description is as above.
Test [24] deals with HIV-1 subtype C C06980v1c3 gp160 (HIV-1 subtype C isolate C06980v1c3). Described as above.
Test [25] addresses HIV-1 subtype C C06980v1c3 gp160 DC (HIV-1 subtype C isolate C06980v1c3). The description is as above.
Test [26] addresses HIV-1 subtype C C3728v2c6 gp160 (HIV-1 subtype C isolate C3728v2c6). The test is described as above.
In test [27] the target is HIV-1 subtype C C3728v2c6 gp160 DC (HIV-1 subtype C isolate C3728v2c6). The test is described as above.
Test [28] has as its target HIV-1 Ba-L gp145 (HIV-1 Ba-L (subtype B)). In words: gp160 antigen capture ELISA, 4E10 as capture antibody; cell lysate of transfected HEK293 cells, 48 h (negative control 0.156).
For test [29], the target named is HIV-1 subtype C C06838v1c48 gp160 (HIV-1 subtype C isolate C06838v1c48). Described as above.
The target of test [30] is HIV-1 subtype C C06838v1c48 gp160 DC (HIV-1 subtype C isolate C06838v1c48). Described as above.
The target in test [31] is HIV-1 subtype C C06980v0c22 gp160 (HIV-1 subtype C isolate C06980v0c22). The test is described as above.
Test [32] has as its target HIV-1 subtype C C06980v0c22 gp160 DC (HIV-1 subtype C isolate C06980v0c22). The test is described as above.
For test [33], the target named is HIV-1 subtype C C06980v1c3 gp160 (HIV-1 subtype C isolate C06980v1c3). The description is as above.
Test [34] has as its target HIV-1 subtype C C06980v1c3 gp160 DC (HIV-1 subtype C isolate C06980v1c3). Described as above.
The target in test [35] is HIV-1 subtype C C3728v2c6 gp160 (HIV-1 subtype C isolate C3728v2c6). The test is described as above.
Test [36] concerns the target HIV-1 subtype C C3728v2c6 gp160 DC (HIV-1 subtype C isolate C3728v2c6). The test is described as above.

In the case of “2F5 human monoclonal antibody to the gp41 MPER”, the OD 450 nm in test [1] was 2.27 OD 450 nm; in test [2], 0.146 OD 450 nm; in test [3], 0.155 OD 450 nm; in test [4] it was 0.344 OD 450 nm; in [5] it was 0.298 OD 450 nm; in test [6] it was 0.2 OD 450 nm. The OD 450 nm in test [7] is 0.179 OD 450 nm; in [8] it was 0.198 OD 450 nm; in test [9] it was 0.219 OD 450 nm; in test [10], 2.64 OD 450 nm; in test [11] it was 0.53 OD 450 nm; in test [12], 0.506 OD 450 nm. The OD 450 nm was determined as 1.46 OD 450 nm in [13]; 1.21 OD 450 nm in test [14]; 0.399 OD 450 nm in test [15]; 0.446 OD 450 nm in test [16]; 0.781 OD 450 nm in [17]; 0.829 OD 450 nm in test [18].
With “4E10 human monoclonal antibody to the gp41 MPER”, the OD 450 nm in test [19] was determined as 2.42 OD 450 nm; in test [20], 0.146 OD 450 nm; in [21], 0.162 OD 450 nm; in test [22], 2.53 OD 450 nm; in test [23], 2.61 OD 450 nm; in test [24], 0.926 OD 450 nm. In addition, the OD 450 nm in [25] came out at 1.1 OD 450 nm; in [26], 0.589 OD 450 nm; in test [27] it was 0.681 OD 450 nm; in test [28], 2.55 OD 450 nm; in [29], 2.65 OD 450 nm; in test [30] it was 2.7 OD 450 nm. For the same substance, the OD 450 nm in test [31] worked out at 2.74 OD 450 nm; in test [32], 2.62 OD 450 nm; in test [33] it was 2.72 OD 450 nm; in test [34], 2.59 OD 450 nm; in test [35], 2.78 OD 450 nm; in [36], 2.65 OD 450 nm.
